Legend:
[1] = test system: NIH3T3 cells expressing AcGFP-PDE5A fusions; test: FACS analysis of C-terminal PDE5A mutants (AcGFP-PDE5A fusions), Sildenafil vs vehicle; type: cell-based, mouse; settings: Table 2, 24 hours; for Mean Fluorescence intensity: NIH3T3
Description: The NIH3T3 cell line was cultured in DMEM supplemented with 10% heat-inactivated donor bovine serum (Invitrogen), 2 mM glutamine, 100 U/ml penicillin and 100 μg/ml streptomycin.
The ΦNX ecotropic packaging cell line was transfected using standard Lipofectamine 2000 protocols. Viral supernatants were harvested 48 hours, post transfection, filtered and concentrated 10-fold using Amicon Ultra centrifugal filter device with a 100kDa cutoff. NIH 3T3 cells were incubated with concentrated retroviral supernatants supplemented with 4 μg/ml polybrene for 4 hours at 37° C. Cells were washed once with PBS and cultured in growth media for 24-36 hours to allow for viral integration.
The transduced NIH3T3 cells were subjected to analysis using fluorescence-activated cell sorting (FACS) to screen the libraries of PDE5A mutants. 24 hours prior to analysis, transduced NIH3T3 cells were plated at 1×10^5 cells per well of a 12-well plate. Cells were removed from the plate using PBS and 2 mM EDTA, washed once with PBS, and resuspended in 200 μL, PBS. […]
To identify destabilizing domains that are responsive to the PDE5A ligand, Sildenafil, a cell-based screening assay was employed in which the fluorescence of green fluorescent protein derived from Aequorea coerulescens (AcGFP) served as an indicator of PDE5A stability. […]
A library of AcGFP-PDE5A fusions i.e., C-terminal PDE5A mutants was screened using the cell-based screening assay described previously to identify C-terminal destabilizing domains. […] The stabilization ratio was calculated as the fold change in GFP intensity of the AcGFP-PDE5A construct in Sildenafil treated sample compared to vehicle alone treated sample. […]
Residue D764 was identified as a mutational hotspot from sequence analysis. […] AcGFP-PDE5A variants were evaluated for Sildenafil dependent stabilization via FACS as described previously. […] The stabilization ratio was calculated as the fold change in GFP intensity of the AcGFP-PDE5A construct in Sildenafil treated sample compared to vehicle alone treated sample. […]

[2] = test system: HCT 116 cells transduced with the PDE5A DD derived GFP constructs; test: Response to Vardenafil, GFP expression by FACS in HCT116; type: cell-based, human; settings: for MFI / Stabilization ratio with Vardenafil: 48 hours, HCT116
Description: Mutations were created in PDE5A (535-860) catalytic domain using site directed mutagenesis and the mutants were cloned as AcGFP fusion into pELNS vector carrying mCherry marker and packaged in lentiviral vectors. HCT116 cells were transduced with the constructs and stable integrants were selected by cell sorting using mCherry marker. Cells were treated with vehicle (dimethyl sulfoxide, DMSO) or 10 μM Vardenafil (VDF) for 48 hours. Following the treatment, cells were analyzed for GFP expression using FACS. Basal expression was calculated as the ratio of GFP signal in the absence of ligand for a given cell line to auto fluorescence of parental HCT-116 cells. Stabilization ratio was calculated as the ratio of the GFP signal observed in the presence of stabilizing ligand to the signal from the same cell line in the absence of ligand.
HCT 116 cells transduced with the PDE5A DD derived GFP constructs were also tested with increasing doses of Vardenafil. The HCT116 cells were incubated for 48 hours with Vardenafil starting at a dose of 0.002 μM to 30 μM. The GFP intensity of the Vardenafil treated samples was compared to the parental untransduced HCT116 and DMSO treated cells for each construct. The mean fluorescence intensity was calculated for each sample and used to calculate the stabilization ratios as well as the basal expression for each construct. The GFP expression was measured using flow cytometry and the mean fluorescence intensity (MFI) was calculated for each sample. The stabilization ratios are shown in Table 13 and Table 14 and the basal expression is show in Table 15.

B1: PDE5AC (#42): AcGFP fused to C-terminal DD 535-860 of PDE5A (E535D, K555R, F564S, Q589R, K630R, C677R, N742S, I799T, M816A), SEQ ID NO. 28 (protein)
chain: DETRELQSLAAAVVPSAQTLRITDFSFSDSELSDLETALCTIRMFTDLNLVQNFRMKHEVLCRWILSVKKNYRKNVAYHNWRHAFNTAQCMFAALRAGKIQNKLTDLEILALLIAALSHDLDHRGVNNSYIQRSEHPLAQLYRHSIMEHHHFDQCLMILNSPGNQILSGLSIEEYKTTLKIIKQAILATDLALYIKRRGEFFELIRKSQFNLEDPHQKELFLAMLMTACDLSAITKPWPIQQRIAELVATEFFDQGDRERKELNTEPTDLMNREKKNKIPSAQVGFIDAICLQLYEALTHVSEDCFPLLDGCRKNRQKWQALAEQQ
modifications: /note=“Description of Artificial Sequence Synthetic Destabilizing Domain (DD)”
Mean Fluorescence intensity ([1]; Sildenafil (10 μM) +): 5861 | Mean Fluorescence intensity ([1]; Sildenafil (10 μM) −, vehicle alone): 1658 | Stabilization ratio ([1]; fold change in GFP intensity, Sildenafil 10 μM vs vehicle alone): 3.5 | MFI ([2]; DMSO (no Vardenafil)): 25111 | Basal (DMSO/Parental) ([2]; Table 10, GFP signal without ligand / auto fluorescence of parental HCT-116): 20.0 | Basal ([2]; Table 15, MFI with DMSO / parental HCT116, Vardenafil experiment): 12.85 | Stabilization ratio with Vardenafil ([2]; Vardenafil 0.002 μM vs DMSO): 1.0 | MFI ([2]; Vardenafil 0.002 μM): 25236 | MFI ([2]; Vardenafil 0.005 μM): 28309 | Stabilization ratio with Vardenafil ([2]; Vardenafil 0.014 μM vs DMSO): 1.4 | MFI ([2]; Vardenafil 0.014 μM): 33958 | Stabilization ratio with Vardenafil ([2]; Vardenafil 0.041 μM vs DMSO): 1.9 | MFI ([2]; Vardenafil 0.041 μM): 46882 | Stabilization ratio with Vardenafil ([2]; Vardenafil 0.123 μM vs DMSO): 3.2 | MFI ([2]; Vardenafil 0.123 μM): 81233 | Stabilization ratio with Vardenafil ([2]; Vardenafil 0.370 μM vs DMSO): 4.6 | MFI ([2]; Vardenafil 0.370 μM): 114847 | Stabilization ratio with Vardenafil ([2]; Vardenafil 1.111 μM vs DMSO): 5.4 | MFI ([2]; Vardenafil 1.111 μM): 136303 | Stabilization ratio with Vardenafil ([2]; Vardenafil 3.333 μM vs DMSO): 5.9 | MFI ([2]; Vardenafil 3.333 μM): 147512 | Stabilization ratio with Vardenafil ([2]; Vardenafil 10 μM vs DMSO): 6.4 | MFI ([2]; Vardenafil 10 μM): 161587 | Stabilization ratio with Vardenafil ([2]; Vardenafil 30 μM vs DMSO): 8.0 | MFI ([2]; Vardenafil 30 μM): 199877
